Data as given in patent US20210238260A1 (published 2021).
Residue numbers refer to the chain shown, from its start. Names may count otherwise.

T1: Factor VIIIa (FVIIIa), from recombinant FVIII (Kogenate FS; Bayer healthcare) activated with alpha-thrombin (UniProt P00451 20-2351)
T1 sequence (looked up): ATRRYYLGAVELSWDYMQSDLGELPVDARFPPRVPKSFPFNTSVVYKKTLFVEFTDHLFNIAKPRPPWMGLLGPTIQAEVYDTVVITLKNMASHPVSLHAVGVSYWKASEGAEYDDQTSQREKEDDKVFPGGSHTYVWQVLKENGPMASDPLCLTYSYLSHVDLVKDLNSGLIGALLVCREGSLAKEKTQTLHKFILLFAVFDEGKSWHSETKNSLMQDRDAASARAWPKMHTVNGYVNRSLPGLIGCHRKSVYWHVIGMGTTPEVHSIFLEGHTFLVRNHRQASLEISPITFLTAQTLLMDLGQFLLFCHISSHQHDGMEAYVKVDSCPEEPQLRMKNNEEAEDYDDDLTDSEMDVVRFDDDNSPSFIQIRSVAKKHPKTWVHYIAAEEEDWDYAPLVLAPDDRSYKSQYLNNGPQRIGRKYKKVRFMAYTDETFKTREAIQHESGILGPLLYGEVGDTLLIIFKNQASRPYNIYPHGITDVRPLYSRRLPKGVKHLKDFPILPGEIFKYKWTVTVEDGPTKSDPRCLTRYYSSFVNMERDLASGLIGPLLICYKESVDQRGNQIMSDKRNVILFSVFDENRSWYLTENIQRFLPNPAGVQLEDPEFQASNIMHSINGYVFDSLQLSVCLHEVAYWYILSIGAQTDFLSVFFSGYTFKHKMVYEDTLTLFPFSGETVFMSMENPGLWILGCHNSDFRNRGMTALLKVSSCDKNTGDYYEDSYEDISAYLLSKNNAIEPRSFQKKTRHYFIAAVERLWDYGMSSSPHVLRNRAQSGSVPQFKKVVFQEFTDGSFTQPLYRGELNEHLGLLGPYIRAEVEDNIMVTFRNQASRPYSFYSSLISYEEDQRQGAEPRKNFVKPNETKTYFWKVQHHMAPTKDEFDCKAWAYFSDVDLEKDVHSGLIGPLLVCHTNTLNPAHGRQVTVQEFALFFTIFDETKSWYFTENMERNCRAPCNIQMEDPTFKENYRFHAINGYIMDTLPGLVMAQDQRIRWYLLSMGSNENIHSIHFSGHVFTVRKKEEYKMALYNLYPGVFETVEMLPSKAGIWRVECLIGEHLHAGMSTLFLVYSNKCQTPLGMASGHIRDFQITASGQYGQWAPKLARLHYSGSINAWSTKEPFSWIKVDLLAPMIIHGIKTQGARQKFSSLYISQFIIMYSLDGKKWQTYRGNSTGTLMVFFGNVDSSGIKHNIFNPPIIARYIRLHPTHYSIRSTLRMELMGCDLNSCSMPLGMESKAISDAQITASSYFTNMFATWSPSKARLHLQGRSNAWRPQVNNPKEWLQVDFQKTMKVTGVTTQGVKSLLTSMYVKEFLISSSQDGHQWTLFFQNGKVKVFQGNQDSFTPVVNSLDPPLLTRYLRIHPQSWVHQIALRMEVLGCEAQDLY

T2: Factor VIIIa (recombinant FVIII, Kogenate FS, activated with alpha-thrombin) (UniProt P00451 20-2351)
T2 construct: also called FVIIIa
T2 sequence (looked up): T1 sequence (looked up)

B1: FIXa variant A103N/N105S/K247N/N249S/R318Y/R338E/R403E/E410N (enzyme)
light: YNSGKLEEFVQGNLERECMEEKCSFEEAREVFENTERTTEFWKQYVDGDQCESNPCLNGGSCKDDINSYECWCPFGFEGKNCELDVTCNIKNGRCEQFCKNSNDSKVVCSCTEGYRLAENQKSCEPAVPFPCGRVSVSQTSKLTR
heavy: VVGGEDAKPGQFPWQVVLNGKVDAFCGGSIVNEKWIVTAAHCVETGVKITVVAGEHNIEETEHTEQNRSVIRIIPHHNYNAAINKYNHDIALLELDEPLVLNSYVTPICIADKEYTNIFLKFGSGYVSGWGRVFHKGYSALVLQYLRVPLVDRATCLESTKFTIYNNMFCAGFHEGGRDSCQGDSGGPHVTEVEGTSFLTGIISWGEECAMKGKYGIYTKVSEYVNWIKNKTKLT
B2: FIXa variant D104N/K106S/I251S/R318Y/R338E/E410N (enzyme)
light: B1 light with N103A, D104N, S105N, K106S
heavy: B1 heavy with N67K, S69N, I71S, E223R
B3: FIXa variant D104N/K106S/I251S/R318Y/R338E/R403E/E410N (enzyme)
light: B1 light with N103A, D104N, S105N, K106S
heavy: B1 heavy with N67K, S69N, I71S
B4: FIXa variant R318Y/R338E/N346D/R403E/E410N (enzyme)
light: B1 light with N103A, S105N
heavy: B1 heavy with N67K, S69N, N166D
notes: also called R150Y/R170E/N178D/R233E/E240N
B5: FIXa variant I251S/R318Y/R338E/E410N (enzyme)
light: B1 light with N103A, S105N
heavy: B1 heavy with N67K, S69N, I71S, E223R
notes: also called I86S/R150Y/R170E/E240N; I251S/R318Y/E410N/R338E
B6: FIXa variant R318Y/R338E/E410S (enzyme)
light: B1 light with N103A, S105N
heavy: B1 heavy with N67K, S69N, E223R, N230S
notes: also called R150Y/R170E/E240S
B7: FIXa variant I251S/R318Y/R338E/R403E/E410N (enzyme)
light: B1 light with N103A, S105N
heavy: B1 heavy with N67K, S69N, I71S
notes: also called I86S/R150Y/R170E/R233E/E240N
B8: FIXa variant K228N/K247N/N249S (enzyme)
light: B1 light with N103A, S105N
heavy: B1 heavy with K48N, Y138R, E158R, E223R, N230E
notes: also called K63N/K82N/N84S
B9: FIXa variant K247N/N249S/N260S/R318Y/R338E/R403E/E410N (enzyme)
light: B1 light with N103A, S105N
heavy: B1 heavy with N80S
notes: also called K82N/N84S/N95S/R150Y/R170E/R233E/E240N
B10: FIXa variant K247N/N249S/N260S (enzyme)
light: B1 light with N103A, S105N
heavy: B1 heavy with N80S, Y138R, E158R, E223R, N230E
notes: also called K82N/N84S/N95S
B11: FIXa variant D104N/K106S/K247N/N249S/R318Y/R338E/R403E/E410N (enzyme)
light: B1 light with N103A, D104N, S105N, K106S
heavy: B1 heavy
B12: FIXa variant K228N/K247N/N249S/R318Y/R338E/R403E/E410N (enzyme)
light: B1 light with N103A, S105N
heavy: B1 heavy with K48N
notes: also called K63N/K82N/N84S/R150Y/R170E/R233E/E240N
B13: FIXa variant R318Y/R338E/E410N/T412V (enzyme)
light: B1 light with N103A, S105N
heavy: B1 heavy with N67K, S69N, E223R, T232V
notes: also called R150Y/R170E/E240N/T242V
B14: FIXa variant R318Y/R338E/N346Y/R403E/E410N (enzyme)
light: B1 light with N103A, S105N
heavy: B1 heavy with N67K, S69N, N166Y
notes: also called R150Y/R170E/N178Y/R233E/E240N
B15: FIXa-R318Y/R338E/T343R/E410N (enzyme)
chain 1: B1 light with N103A, S105N
chain 2: B1 heavy with N67K, S69N, T163R, E223R
notes: also called R150Y/R170E/T175R/E240N (chymotrypsin numbering)
B16: FIXa-Y155F/R318Y/R338E/T343R/E410N (enzyme)
chain 1: B1 light with N103A, S105N
chain 2: B1 heavy with N67K, S69N, T163R, E223R
B17: FIXa-Y155F/K228N/K247N/N249S/R318Y/R338E/T343R/R403E/E410N (enzyme)
chain 1: B1 light with N103A, S105N
chain 2: B1 heavy with K48N, T163R
B18: FIXa-Y155F/R338E/T343R/R403E (enzyme)
chain 1: B1 light with N103A, S105N
chain 2: B1 heavy with N67K, S69N, Y138R, T163R, N230E
B19: FIXa-Y155F/K247N/N249S/R318Y/R338E/T343R (enzyme)
chain 1: B1 light with N103A, S105N
chain 2: B1 heavy with T163R, E223R, N230E
B20: FIXa-K247N/N249S/R318Y/R338E/T343R (enzyme)
chain 1: B1 light with N103A, S105N
chain 2: B1 heavy with T163R, E223R, N230E
notes: also called K82N/N84S/R150Y/R170E/T175R (chymotrypsin numbering)
B21: FIXa-R338E/T343R/R403E (enzyme)
chain 1: B1 light with N103A, S105N
chain 2: B1 heavy with N67K, S69N, Y138R, T163R, N230E
notes: also called R170E/T175R/R233E (chymotrypsin numbering)
B22: FIXa-Y155F/R318Y/R338E/T343R (enzyme)
chain 1: B1 light with N103A, S105N
chain 2: B1 heavy with N67K, S69N, T163R, E223R, N230E
B23: FIXa-R318Y/R338E/T343R (enzyme)
chain 1: B1 light with N103A, S105N
chain 2: B1 heavy with N67K, S69N, T163R, E223R, N230E
notes: also called R150Y/R170E/T175R (chymotrypsin numbering); CB2679d
B24: FIXa-Y155F/R338E/T343R/R403E/E410N (enzyme)
chain 1: B1 light with N103A, S105N
chain 2: B1 heavy with N67K, S69N, Y138R, T163R
B25: FIXa-R338E/T343R/R403E/E410N (enzyme)
chain 1: B1 light with N103A, S105N
chain 2: B1 heavy with N67K, S69N, Y138R, T163R
notes: also called R170E/T175R/R233E/E240N (chymotrypsin numbering)
B26: FIXa-Y155F/R338E/T343R/E410N (enzyme)
chain 1: B1 light with N103A, S105N
chain 2: B1 heavy with N67K, S69N, Y138R, T163R, E223R
B27: FIXa-K228N/K247N/N249S/R318Y/R338E/T343R/R403E/E410N (enzyme)
chain 1: B1 light with N103A, S105N
chain 2: B1 heavy with K48N, T163R
notes: also called K63N/K82N/N84S/R150Y/R170E/T175R/R233E/E240N (chymotrypsin numbering)
B28: FIXa-R338E/T343R/E410N (enzyme)
chain 1: B1 light with N103A, S105N
chain 2: B1 heavy with N67K, S69N, Y138R, T163R, E223R
notes: also called R170E/T175R/E240N (chymotrypsin numbering)
B29: FIXa variant Y155F/K247N/N249S/R318Y/R338E/R403E/E410N (enzyme)
light: B1 light with N103A, S105N
heavy: B1 heavy
B30: FIXa variant D104N/K106S/Y155F/K247N/N249S/N260S (enzyme)
light: B1 light with N103A, D104N, S105N, K106S
heavy: B1 heavy with N80S, Y138R, E158R, E223R, N230E
B31: FIXa variant D104N/K106S/K247N/N249S/N260S (enzyme)
light: B1 light with N103A, D104N, S105N, K106S
heavy: B1 heavy with N80S, Y138R, E158R, E223R, N230E
B32: FIXa variant K247N/N249S/R318Y/R338E/R403E/E410N (enzyme)
light: B1 light with N103A, S105N
heavy: B1 heavy
notes: also called K82N/N84S/R150Y/R170E/R233E/E240N

The binders below were run against T1, Factor VIIIa (FVIIIa), from recombinant … (assay: ratio of KD-app of Catalyst Biosciences WT FIXa to KD-app of the variant, same Xase assay).
Description: (§1) The activity of alpha-thrombin was then quenched by the addition of a highly specific thrombin inhibitor, hirudin, prior to initiating the assay.

Binder | KD-WT/KD-mut
B1 | 1 fold
B2 | 7.7 fold
B3 | 1.7 fold
B4 | 0.9 fold
B5 | 16.7 fold
B6 | 14.1 fold
B7 | 1.5 fold
B8 | 0.8 fold
B9 | 1.5 fold
B10 | 0.6 fold
B11 | 1.1 fold
B12 | 0.9 fold
B13 | 10.7 fold
B14 | 2.4 fold

What follows are binders tested against T2, Factor VIIIa (recombinant FVIII, …) (assay: functional cofactor affinity KD-app: fluorogenic FX activation (Xase) assay, FVIIIa titrated, PC/PS vesicles, saturating FX).
Protocol: Reactions were monitored in a SpectraMax fluorescence plate reader for 30 min at 37° C. A standard curve of free AMC served as the conversion factor for RFU to μM in the subsequent data analysis calculations using a dose range that covered 0 μM to 100 μM AMC.

Binder | Kd
B15 | 6.1 nM
B16 | 7.4 nM
B17 | 37 nM
B18 | 72.1 nM
B19 | 14 nM
B20 | 14.7 nM
B21 | 55 nM
B22 | 8.4 nM
B23 | 9.8 nM
B24 | 28.5 nM
B25 | 29.4 nM
B26 | 8.5 nM
B27 | 29.1 nM
B28 | 7.5 nM

These binders were tested against T1, Factor VIIIa (FVIIIa), from recombinant … (assay: apparent functional KD (KD-app): FX activation rate vs FVIIIa titration, fluorogenic Xase assay with PC/PS vesicles and Ca2+).
Description: as §1

Binder | Kd
B1 | 93.1 nM
B2 | 12.4 nM
B29 | 45.8 nM
B3 | 54.7 nM
B4 | 110 nM
B5 | 5.7 nM
B6 | 6.8 nM
B7 | 62.7 nM
B8 | 113 nM
B9 | 65 nM
B30 | 142 nM
B10 | 147 nM
B11 | 87.4 nM
B12 | 100 nM
B31 | 330 nM
B13 | 8.9 nM
B32 | 68.6 nM
B14 | 39.6 nM
